Laboratory results from publication PMC4231769, “The Werner syndrome protein limits the error-prone 8-oxo-dG lesion bypass activity of human DNA polymerase kappa” (Nucleic Acids Research, 2014).
Each block holds one binder with its values, some of them ahead of it.

Target: T1, GST-tagged hpol κ^19-526 (human DNA polymerase kappa catalytic core) (human, UniProt Q9UBT6 19-526)
T1 construct: human DNA polymerase kappa (hpol κ), residues 19-526, catalytic core; The pull-downs used GST-tagged hpol κ^19-526; The polymerase assays (functional rows) name hpol κ^19-526 without a GST tag; also called GST-hpol κ; source: recombinant, purified
T1 sequence (looked up): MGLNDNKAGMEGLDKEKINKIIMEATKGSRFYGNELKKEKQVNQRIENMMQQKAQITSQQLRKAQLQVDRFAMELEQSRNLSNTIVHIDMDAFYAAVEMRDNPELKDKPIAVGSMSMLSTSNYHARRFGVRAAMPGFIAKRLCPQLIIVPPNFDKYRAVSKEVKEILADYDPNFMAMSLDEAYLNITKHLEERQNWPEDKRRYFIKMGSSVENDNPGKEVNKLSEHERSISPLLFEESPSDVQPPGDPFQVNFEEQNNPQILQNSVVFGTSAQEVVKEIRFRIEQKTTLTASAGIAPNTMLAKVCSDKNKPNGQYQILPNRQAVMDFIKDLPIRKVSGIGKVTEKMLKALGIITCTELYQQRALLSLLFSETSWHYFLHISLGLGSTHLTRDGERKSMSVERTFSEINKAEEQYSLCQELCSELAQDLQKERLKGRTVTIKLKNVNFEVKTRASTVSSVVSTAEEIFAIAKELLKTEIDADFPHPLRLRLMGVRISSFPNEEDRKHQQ
Test: pull-down; GST-hpol κ^19-526 on glutathione Sepharose beads (~1200 pmol), WRN construct 1 μM (~500 pmol) in 500 μl; 25 mM HEPES pH 7.5, 0.1 M NaCl, 10% glycerol, 5 mM β-ME; 16 h at 4°C; Coomassie-stained SDS-PAGE; specific binding = fraction bound to GST-hpol κ beads divided by fraction bound to GST-coated beads
Settings: both partners purified

fold bound to GST-hpol κ beads over GST beads: ~2 fold
B1: WRN^500-1092 ATPase/RQC construct (domain or fragment)
chain: not shown
notes: source: E. coli BL21 (DE3) Gold, purified (Ni Sepharose, Glutathione Sepharose, HRV 3C cleavage); not shown: 6xHis, N-terminal, cleaved; GST, N-terminal, cleaved

binding result: binds
B2: WRN^1-333 exo domain (domain or fragment, UniProt Q14191 1-333, looked up)
chain: MSEKKLETTAQQRKCPEWMNVQNKRCAVEERKACVRKSVFEDDLPFLEFTGSIVYSYDASDCSFLSEDISMSLSDGDVVGFDMEWPPLYNRGKLGKVALIQLCVSESKCYLFHVSSMSVFPQGLKMLLENKAVKKAGVGIEGDQWKLLRDFDIKLKNFVELTDVANKKLKCTETWSLNSLVKHLLGKQLLKDKSIRCSNWSKFPLTEDQKLYAATDAYAGFIIYRNLEILDDTVQRFAINKEEEILLSDMNKQLTSISEEVMDLAKHLPHAFSKLENPRRVSILLKDISENLYSLRRMIIGSTNIETELRPSNNLNLLSFEDSTTGGVQQKQI
notes: also called WRN exo

fold bound to GST-hpol κ beads over GST beads: ~3 fold
B3: WRN^949-1092 RQC domain (domain or fragment, UniProt Q14191 949-1092, looked up)
chain: MDDSEDTSWDFGPQAFKLLSAVDILGEKFGIGLPILFLRGSNSQRLADQYRRHSLFGTGKDQTESWWKAFSRQLITEGFLVEVSRYNKFMKICALTKKGRNWLHKANTESQSLILQANEELCPKKLLLPSSKTVSSGTKEHCYN
notes: as for B1
